According to publication PMC2725191:

Biological target: Biotinylated tubulin (bovine brain tubulin labelled with NHS-LC-biotin), held on a streptavidin layer (bovine) (UniProt Q6B856)
Assay: dual polarization interferometry

With “Tubulin (alpha/beta heterodimer), purified from bovine brain (from UniProt Q6B856 1-445) (complex)” the rate of thickness increase after the inflection point (microtubule growth) was 0.436 nm/min.
